Assay results: article PMC3352088, “Structure and function of the transketolase from Mycobacterium tuberculosis and comparison with the human enzyme” (Open Biology, 2012)

How the values were obtained:
[1] = tested on: O=C(CO)[C@@H](O)[C@H](O)COP(=O)(O)O; test: purified protein; settings: TPP, Mg2+ donor substrate; substrate cleft
[2] = tested on: O=C(CO)[C@@H](O)[C@H](O)[C@H](O)COP(=O)(O)O; test: purified protein; settings: TPP, Mg2+ donor substrate; substrate cleft
[3] = tested on: O=C[C@H](O)[C@H](O)[C@H](O)COP(=O)(O)O; test: purified protein; settings: TPP, Mg2+ acceptor substrate; substrate cleft
[4] = molecular target: the molecule itself; test: crystal structure; TBTKT with TPP and Mg2+, space group P1, four molecules (two dimers) in the asymmetric unit, 2.5 Å; crystals from 0.1 M ammonium acetate, 0.1 M bis-tris pH 5.5, 17% w/v PEG 10 000, 22°C

| Molecule | Km [1] | Km [2] | Km [3] | stoichiometry N [4] |
| --- | --- | --- | --- | --- |
| transketolase (TBTKT) (Mycobacterium tuberculosis H37Rv) | 350 ± 120 µM | 630 ± 90 µM | 820 ± 120 µM | – |
| transketolase from Mycobacterium tuberculosis (TBTKT) (enzyme, also called Rv1449; rv1449c gene product) MTTLEEISALTRPRHPDYWTEIDSAAVDTIRVLAADAVQKVGNGHPGTAMSLAPLAYTLFQRTMRHDPSDTHWLGRDRFVLSAGHSSLTLYIQLYLGGFGLELSDIESLRTWGSKTPGHPEFRHTPGVEITTGPLGQGLASAVGMAMASRYERGLFDPDAEPGASPFDHYIYVIASDGDIEEGVTSEASSLAAVQQLGNLIVFYDRNQISIEDDTNIALCEDTAARYRAYGWHVQEVEGGENVVGIEEAIANAQAVTDRPSFIALRTVIGYPAPNLMDTGKAHGAALGDDEVAAVKKIVGFDPDKTFQVREDVLTHTRGLVARGKQAHERWQLEFDAWARREPERKALLDRLLAQKLPDGWDADLPHWEPGSKALATRAASGAVLSALGPKLPELWGGSADLAGSNNTTIKGADSFGPPSISTKEYTAHWYGRTLHFGVREHAMGAILSGIVLHGPTRAYGGTFLQFSDYMRPAVRLAALMDIDTIYVWTHDSIGLGEDGPTHQPIEHLSALRAIPRLSVVRPADANETAYAWRTILARRNGSGPVGLILTRQGVPVLDGTDAEGVARGGYVLSDAGGLQPGEEPDVILIATGSEVQLAVAAQTLLADNDILARVVSMPCLEWFEAQPYEYRDAVLPPTVSARVAVEAGVAQCWHQLVGDTGEIVSIEHYGESADHKTLFREYGFTAEAVAAAAERALDN | – | – | – | 2 |
